Reference: US20210388087A1 (Chugai, published 2021)
Positions count from the first letter of the chain named. Names and notes keep the numbering of the source.

B1: CE115HA000 S52cA one-arm antibody (antibody, human IgG1, kappa, L234A L235A, N297A, name in Kabat numbering)
heavy: QVQLVESGGGVVQPGRSLRLSCAASGFTFSNAWMHWVRQAPGKGLEWVAQIKAKANNYATYYAESVKGRFTISRDDSKNSLYLQMNSLKTEDTAVYYCRYVHYGAYYGVDAWGQGTTVTVSSASTKGPSVFPLAPSSKSTSGGTAALGCLVKDYFPEPVTVSWNSGALTSGVHTFPAVLQSSGLYSLSSVVTVPSSSLGTQTYICNVNHKPSNTKVDKKVEPKSCDKTHTCPPCPAPEAAGGPSVFLFPPKPKDTLMISRTPEVTCVVVDVSHEDPEVKFNWYVDGVEVHNAKTKPREEQYASTYRVVSVLTVLHQDWLNGKEYKCKVSNKALPAPIEKTISKAKGQPREPQVYTLPPSRCELTKNQVSLSCAVKGFYPSDIAVEWESNGQPENNYKTTPPVLDSDGSFFLVSKLTVDKSRWQQGNVFSCSVMHEALHNHYTQKSLSLSPDYKDDDDK
chain: EPKSSDKTHTCPPCPAPELLGGPSVFLFPPKPKDTLMISRTPEVTCVVVDVSHEDPEVKFNWYVDGVEVHNAKTKPREEQYNSTYRVVSVLTVLHQDWLNGKEYKCKVSNKALPAPIEKTISKAKGQPREPQVCTLPPSRDELTKNQVSLWCLVKGFYPSDIAVEWESNGQPENNYKTTPPVLDSDGSFFLYSKLTVDKSRWQQGNVFSCSVMHEALHNRYTQKSLSLSP
light: DIVMTQSPLSLPVTPGEPASISCRSSQSLVHSNRNTYLHWYQQKPGQAPRLLIYKVSNRFSGVPDRFSGSGSGTDFTLKISRVEAEDVGVYYCGQGTQVPYTFGQGTKLEIKRTVAAPSVFIFPPSDEQLKSGTASVVCLLNNFYPREAKVQWKVDNALQSGNSQESVTEQDSKDSTYSLSSTLTLSKADYEKHKVYACEVTHQGLSSPVTKSFNRGEC
B2: CE115HA000 S62E one-arm antibody (antibody, human IgG1, kappa, L234A L235A, N297A, name in Kabat numbering)
heavy: B1 heavy with A55S, S65E
chain: B1 chain
light: B1 light
B3: CE115HA000 W33A one-arm antibody (antibody, human IgG1, kappa, L234A L235A, N297A, name in Kabat numbering)
heavy: B1 heavy with W33A, A55S
chain: B1 chain
light: B1 light
B4: CE115HA000 T57N one-arm antibody (antibody, human IgG1, kappa, L234A L235A, N297A, name in Kabat numbering)
heavy: B1 heavy with A55S, T60N
chain: B1 chain
light: B1 light
B5: CE115HA000 S52cK one-arm antibody (antibody, human IgG1, kappa, L234A L235A, N297A, name in Kabat numbering)
heavy: B1 heavy with A55K
chain: B1 chain
light: B1 light
B6: CE115HA000 S77T one-arm antibody (antibody, human IgG1, kappa, L234A L235A, N297A, name in Kabat numbering)
heavy: B1 heavy with A55S, S80T
chain: B1 chain
light: B1 light
B7: CE115HA000 S62P one-arm antibody (antibody, human IgG1, kappa, L234A L235A, N297A, name in Kabat numbering)
heavy: B1 heavy with A55S, S65P
chain: B1 chain
light: B1 light
B8: CE115HA000 V95D one-arm antibody (antibody, human IgG1, kappa, L234A L235A, N297A, name in Kabat numbering)
heavy: B1 heavy with A55S, V101D
chain: B1 chain
light: B1 light
B9: CE115HA000 S52cY one-arm antibody (antibody, human IgG1, kappa, L234A L235A, N297A, name in Kabat numbering)
heavy: B1 heavy with A55Y
chain: B1 chain
light: B1 light
B10: CE115HA000 V11L one-arm antibody (antibody, human IgG1, kappa, L234A L235A, N297A, name in Kabat numbering)
heavy: B1 heavy with V11L, A55S
chain: B1 chain
light: B1 light
B11: CE115HA000 V95E one-arm antibody (antibody, human IgG1, kappa, L234A L235A, N297A, name in Kabat numbering)
heavy: B1 heavy with A55S, V101E
chain: B1 chain
light: B1 light
B12: CE115HA000 T57I one-arm antibody (antibody, human IgG1, kappa, L234A L235A, N297A, name in Kabat numbering)
heavy: B1 heavy with A55S, T60I
chain: B1 chain
light: B1 light
B13: CE115HA000 S52cQ one-arm antibody (antibody, human IgG1, kappa, L234A L235A, N297A, name in Kabat numbering)
heavy: B1 heavy with A55Q
chain: B1 chain
light: B1 light
B14: CE115HA000 V95K one-arm antibody (antibody, human IgG1, kappa, L234A L235A, N297A, name in Kabat numbering)
heavy: B1 heavy with A55S, V101K
chain: B1 chain
light: B1 light
B15: CE115HA000 S52cL one-arm antibody (antibody, human IgG1, kappa, L234A L235A, N297A, name in Kabat numbering)
heavy: B1 heavy with A55L
chain: B1 chain
light: B1 light
B16: CE115HA000 S52cD one-arm antibody (antibody, human IgG1, kappa, L234A L235A, N297A, name in Kabat numbering)
heavy: B1 heavy with A55D
chain: B1 chain
light: B1 light
B17: CE115HA000 S52cG one-arm antibody (antibody, human IgG1, kappa, L234A L235A, N297A, name in Kabat numbering)
heavy: B1 heavy with A55G
chain: B1 chain
light: B1 light
B18: CE115HA000 V100cP one-arm antibody (antibody, human IgG1, kappa, L234A L235A, N297A, name in Kabat numbering)
heavy: B1 heavy with A55S, V109P
chain: B1 chain
light: B1 light
B19: CE115HA000 S74P one-arm antibody (antibody, human IgG1, kappa, L234A L235A, N297A, name in Kabat numbering)
heavy: B1 heavy with A55S, S77P
chain: B1 chain
light: B1 light
B20: CE115HA000 V100cD one-arm antibody (antibody, human IgG1, kappa, L234A L235A, N297A, name in Kabat numbering)
heavy: B1 heavy with A55S, V109D
chain: B1 chain
light: B1 light
B21: CE115HA000 S62K one-arm antibody (antibody, human IgG1, kappa, L234A L235A, N297A, name in Kabat numbering)
heavy: B1 heavy with A55S, S65K
chain: B1 chain
light: B1 light
B22: CE115HA000 V100cE one-arm antibody (antibody, human IgG1, kappa, L234A L235A, N297A, name in Kabat numbering)
heavy: B1 heavy with A55S, V109E
chain: B1 chain
light: B1 light
B23: CE115HA000 T57A one-arm antibody (antibody, human IgG1, kappa, L234A L235A, N297A, name in Kabat numbering)
heavy: B1 heavy with A55S, T60A
chain: B1 chain
light: B1 light
B24: CE115HA000 S62D one-arm antibody (antibody, human IgG1, kappa, L234A L235A, N297A, name in Kabat numbering)
heavy: B1 heavy with A55S, S65D
chain: B1 chain
light: B1 light
B25: CE115HA000 T57K one-arm antibody (antibody, human IgG1, kappa, L234A L235A, N297A, name in Kabat numbering)
heavy: B1 heavy with A55S, T60K
chain: B1 chain
light: B1 light
B26: CE115HA000 S52cF one-arm antibody (antibody, human IgG1, kappa, L234A L235A, N297A, name in Kabat numbering)
heavy: B1 heavy with A55F
chain: B1 chain
light: B1 light
B27: CE115HA000 S74A one-arm antibody (antibody, human IgG1, kappa, L234A L235A, N297A, name in Kabat numbering)
heavy: B1 heavy with A55S, S77A
chain: B1 chain
light: B1 light
B28: CE115HA000 V95A one-arm antibody (antibody, human IgG1, kappa, L234A L235A, N297A, name in Kabat numbering)
heavy: B1 heavy with A55S, V101A
chain: B1 chain
light: B1 light
B29: CE115HA000 V95G one-arm antibody (antibody, human IgG1, kappa, L234A L235A, N297A, name in Kabat numbering)
heavy: B1 heavy with A55S, V101G
chain: B1 chain
light: B1 light
B30: CE115HA000 T28D one-arm antibody (antibody, human IgG1, kappa, L234A L235A, N297A, name in Kabat numbering)
heavy: B1 heavy with T28D, A55S
chain: B1 chain
light: B1 light
B31: CE115HA000 T28S one-arm antibody (antibody, human IgG1, kappa, L234A L235A, N297A, name in Kabat numbering)
heavy: B1 heavy with T28S, A55S
chain: B1 chain
light: B1 light
B32: CE115HA000 V95S one-arm antibody (antibody, human IgG1, kappa, L234A L235A, N297A, name in Kabat numbering)
heavy: B1 heavy with A55S, V101S
chain: B1 chain
light: B1 light
B33: CE115HA000 S52cV one-arm antibody (antibody, human IgG1, kappa, L234A L235A, N297A, name in Kabat numbering)
heavy: B1 heavy with A55V
chain: B1 chain
light: B1 light

What follows are binders tested against T1, CD3 epsilon homodimer protein (UniProt P07766 23-126) (assay: SPR (Biacore T200), CD3 epsilon homodimer on CM4 chip, one-arm antibody as analyte, 25 C;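 also: homodimer attached to the sensor surface via amine coupling, HBS-EP+ used as running buffer during binding runs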).
T1 construct: immobilized on Sensor chip CM4 by amine coupling; also called CD3 (CD3 epsilon)
T1 sequence (P07766 23-126): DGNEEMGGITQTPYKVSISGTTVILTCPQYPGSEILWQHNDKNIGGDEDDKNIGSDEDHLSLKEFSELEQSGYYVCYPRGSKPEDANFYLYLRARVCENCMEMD
In the case of B1, the “ratio of amounts bound (altered form / CE115HA000)” value is reported as 0.96.
B2 was tested, and the “ratio of amounts bound (altered form / CE115HA000)” value was 0.92.
B3 was tested, and the “ratio of amounts bound (altered form / CE115HA000)” value was 0.1.
In the case of B4, the “ratio of amounts bound (altered form / CE115HA000)” value is reported as 0.97.
In the case of B5, the “ratio of amounts bound (altered form / CE115HA000)” value is reported as 1.19.
In the case of B6, the “ratio of amounts bound (altered form / CE115HA000)” value is reported as 0.9.
With B7 the “ratio of amounts bound (altered form / CE115HA000)” value was 1.
In the case of B8, the “ratio of amounts bound (altered form / CE115HA000)” value is reported as 0.24.
B9 was tested, and the “ratio of amounts bound (altered form / CE115HA000)” value was 1.11.
B10 was tested, and the “ratio of amounts bound (altered form / CE115HA000)” value was 1.
For B11, the “ratio of amounts bound (altered form / CE115HA000)” value was 0.24.
In the case of B12, the “ratio of amounts bound (altered form / CE115HA000)” value is reported as 0.61.
With B13 the “ratio of amounts bound (altered form / CE115HA000)” value was 1.04.
B14 was tested, and the “ratio of amounts bound (altered form / CE115HA000)” value was 0.64.
With B15 the “ratio of amounts bound (altered form / CE115HA000)” value was 0.98.
B16 was tested, and the “ratio of amounts bound (altered form / CE115HA000)” value was 0.6.
In the case of B17, the “ratio of amounts bound (altered form / CE115HA000)” value is reported as 0.97.
With B18 the “ratio of amounts bound (altered form / CE115HA000)” value was 0.2.
B19 was tested, and the “ratio of amounts bound (altered form / CE115HA000)” value was 0.91.
With B20 the “ratio of amounts bound (altered form / CE115HA000)” value was 0.44.
For B21, the “ratio of amounts bound (altered form / CE115HA000)” value was 1.19.
B22 was tested, and the “ratio of amounts bound (altered form / CE115HA000)” value was 0.46.
In the case of B23, the “ratio of amounts bound (altered form / CE115HA000)” value is reported as 0.98.
B24 was tested, and the “ratio of amounts bound (altered form / CE115HA000)” value was 0.92.
With B25 the “ratio of amounts bound (altered form / CE115HA000)” value was 1.32.
For B26, the “ratio of amounts bound (altered form / CE115HA000)” value was 1.13.
B27 was tested, and the “ratio of amounts bound (altered form / CE115HA000)” value was 1.05.
B28 was tested, and the “ratio of amounts bound (altered form / CE115HA000)” value was 0.11.
With B29 the “ratio of amounts bound (altered form / CE115HA000)” value was 0.19.
With B30 the “ratio of amounts bound (altered form / CE115HA000)” value was 0.56.
For B31, the “ratio of amounts bound (altered form / CE115HA000)” value was 0.91.
In the case of B32, the “ratio of amounts bound (altered form / CE115HA000)” value is reported as 0.22.
B33 was tested, and the “ratio of amounts bound (altered form / CE115HA000)” value was 0.93.
